# Article PMC10209884, “Hypochlorite-induced oxidation promotes aggregation and reduces toxicity of amyloid beta 1-42” (Redox Biology, 2023)
# Assays:
# [1] = Filter trap assay (insoluble Aβ1-42 retained on cellulose acetate membrane); assay type: physicochemical; conditions: co-incubation with 1.6-fold molar excess of NaOCl vs Aβ1-42 in PBS alone; Aβ1-42 55 μM, PBS pH 7.4, overnight, ambient room temperature; 0.22 μm cellulose acetate membrane, WO2 blot densitometry; mean of n = 3
# Experimental: (§1) When incubations differed from these standard conditions for a specific experiment, the details are provided in the relevant figure legend and in the relevant section of the Methods section.
# Following treatment with NaOCl, Aβ1-42 samples were subjected to filter trap assay in order to estimate the amount of peptide present in the insoluble fraction. […] Following extraction of the soluble fraction using a vacuum, the wells of the apparatus were washed three times using 0.01% (v/v) Triton-X in PBS. […] Blots were imaged after exposure to enhanced chemiluminescence reagent (Bio-Rad, NSW, AUS) using a ChemiDoc MP Imaging system (Bio-Rad, NSW, AUS).
# [2] = Western blot analysis of SDS-resistant Aβ1-42 assemblies; assay type: physicochemical; conditions: higher concentrations of NaOCl, PBS overnight at ambient room temperature; 10-20% tris-tricine gel, WO2 Western blot
# Experimental: as §1
# Gels were stained using Instant Blue stain (Abcam; Melbourne, VIC, AUS) and imaged with Geldoc Go imager (Bio-Rad, NSW, AUS).
# Blots were imaged after exposure to enhanced chemiluminescence reagent (Bio-Rad, NSW, AUS) using a ChemiDoc MP Imaging system (Bio-Rad, NSW, AUS).
# [3] = Size exclusion chromatography of Aβ1-42 assemblies; assay type: physicochemical; conditions: 66.67 μM Aβ1-42, PBS, 1 h ambient room temperature
# Source text: The absorbance at 280 nm was used to monitor the elution of the peptide.
# SH-SY5Y cells = test: Incucyte endocytosis assay (colocalization with Lysotracker Red); assay type: cell-based, human; conditions: Aβ1-42-Hilyte-488 (50 μM) pre-treated with 160 μM NaOCl, compared to copper/H2O2 treatment, Ham's F12, 4 °C, 4 days; 1 μM on cells, 1 h; n = 27 areas from three wells
# Experimental: Images of the cells were taken after 1 h using an Incucyte SX5 (Sartorius).
# Aβ1-42-Hilyte-488 (50 μM) was incubated with 160 μM NaOCl or […]/H2O2 in Ham's/F12 or Ham's/F12 alone for 4 days at 4 °C. SH-SY5Y cells seeded at 15,000 cells/well in a 96-well plate were then treated with 1 μM of Aβ1-42-Hilyte-488 in NB27 containing 100 nM Lysotracker Red DND-99. Images of cells (9 images per well) were taken after 1 h using an Incucyte SX5 (Sartorius). Colocalization of Aβ1-42-Hilyte-488 with Lysotracker Red was calculated using Incucyte live cell analysis software.
# [4] = BisANS assay of surface exposed hydrophobicity; assay type: physicochemical; conditions: NaOCl at sub-stoichiometric concentration vs Aβ1-42 in PBS alone, overnight, ambient room temperature, 10 μM Aβ1-42, 20 μM bisANS, 5 min, 25 °C, Ex 360 nm, Em 502 nm, mean of n = 10
# Experimental: as §1
# Aβ1-42 was treated with NaOCl and the solutions supplemented with excess L-Met. […] BisANS fluorescence (Excitation 360 nm, Emission 502 nm) was then measured using a Clariostar platereader (BMG Labtech). The data shown is the average BisANS fluorescence of n = 10 samples and is adjusted for background fluorescence.
# [5] = Thioflavin T (ThT) assay of amyloid fibril formation; assay type: physicochemical
# Experimental: Aβ1–42 (4–5 μM) was incubated at 28 °C with shaking in PBS ± NaOCl containing ThT (20–25 μM). The ThT fluorescence of the samples was continuously monitored using a Clariostar platereader with excitation and emission wavelengths of 440 nm and 480 nm (slit widths of 10 nm), respectively. The data shown is the mean fluorescence of triplicate samples and is adjusted for the background fluorescence. In additional experiments, Aβ1–42 was pre-treated with NaOCl in PBS for 1 h at ambient room temperature before being supplemented with excess L-Met (20 mM). A control sample of Aβ1–42 was incubated in the absence of NaOCl as described previously and supplemented with L-Met. Aβ1–42 preparations were then subjected to a ThT assay incubated at 37 °C under quiescent conditions, and monitored as described above. Half-time (t1/2) values are the time to reach half of the maximum ThT fluorescence, calculated after normalising the aggregation data for 3 independent assays.
# [6] = Transmission electron microscopy of ThT assay end-point samples; assay type: physicochemical; conditions: end-point samples of ThT assay after NaOCl pre-treatment; 2% uranyl acetate stain
# Experimental: Samples from the ThT kinetics assay (endpoints) were prepared for TEM on 400-mesh carbon film coated copper grids (EM resolutions Ltd.) and stained with 2% (w/v) uranyl acetate. Grids were imaged with a FEI Tecnai G2 transmission electron microscope (Cambridge Advanced Imaging Centre, University of Cambridge) and subsequent images analyzed with SIS Megaview II Image Capture system (Olympus).
# [7] = Electrospray mass spectrometry of Aβ1-42 oxidation by NaOCl; assay type: physicochemical; conditions: 5-fold molar excess of NaOCl; 31 μM Aβ1-42, PBS, 1 h on ice/4 °C, quenched with 20 mM L-Met; electrospray MS
# Experimental: Aβ1–42 (31 μM) was incubated with NaOCl (0–360 μM) in PBS on ice for 1 h and the reaction was quenched using L-Met (20 mM). Electrospray mass spectrometry was performed on a Xevo G2 mass spectrometer and data was analyzed using MassLynx software (Waters UK, Elstree, Hertfordshire, UK) at the Department of Chemistry, University of Cambridge.
# [8] = tested on: SH-SY5Y neuroblastoma cells; test: Incucyte Cytotox Green cell death assay; assay type: cell-based, human; conditions: Aβ1-42 (100 μM) pre-incubated with 80 μM NaOCl in Ham's/F12 2 h ambient room temperature; 15 μM Aβ1-42 on cells; vs Aβ1-42 without NaOCl
# Experimental: Cell viability was also measured in real-time using Cytotox Green reagent (Essen Bioscience) in an Incucyte SX5 (Sartorius, South VIC, AUS), according to the manufacturer's instructions.
# cortical neurons = conditions: in vitro, cortical neurons from rodents; cited from earlier work
# Source text: The exact concentration of hypochlorite generated in cerebral spinal fluid is not known, but myeloperoxidase has been measured in human cerebrospinal fluid (CSF) from cognitively normal donors at 101 ± 43 pg/ml with corresponding activity of 0.0292 ± 0.001 mU [34]. Although myeloperoxidase activity is much less in CSF than in human serum, human serum also contains high levels of albumin which acts as an antioxidant. […] Considering that 3-chl ...
compound,measurement,setting,value
NaOCl-treated Aβ1-42: Aβ1-42 pre-incubated with sodium hypochlorite; singly oxidised species in heterogeneous assemblies,reduction in insoluble Aβ1-42 detected by filter trap assay,[1],95%
same,size of higher order SDS-resistant Aβ1-42 assemblies,[2],~150 kDa
same,SEC approximate molecular masses of predominate peaks,"[3]; 2-fold molar excess of NaOCl (133.33 μM), Superdex 75 Increase 3.2/300, A280, ≥100 kDa = exclusion limit",≥ 100 kDa
same,internalisation to lysosomes (colocalization area of Aβ1-42-Hilyte-488 and Lysotracker Red),SH-SY5Y cells,preferentially internalise
amyloid beta peptide 1–42 [Aβ1-42],BisANS fluorescence (surface exposed hydrophobicity),[4],substantial decrease
same,amyloid-associated ThT fluorescence over a 7-hr time course,"[5]; co-incubation with 2-fold molar excess of NaOCl, 5 μM Aβ1-42, 25 μM ThT, PBS, 28 °C, orbital shaking, mean of n = 4",significantly suppress
same,increase in amyloid-associated ThT fluorescence (half-time t1/2),"[5]; pre-treatment with 1.6-fold molar excess of NaOCl in PBS 1 h RT, quenched with excess L-Met, 4 μM Aβ1-42, 25 μM ThT, 37 °C, mean of n = 3",significantly delayed
same,amyloid-associated ThT fluorescence over the 15 h of the assay,"[5]; pre-treatment with 3.2-fold molar excess of NaOCl in PBS 1 h RT, quenched with excess L-Met, 4 μM Aβ1-42, 25 μM ThT, 37 °C, mean of n = 3",prevented
same,formation of amyloid fibrils by TEM,[6],markedly reduced
same,SEC apparent size of the majority of the peptide (monomer),"[3]; no NaOCl, Superdex 75 Increase 3.2/300, 0.05 ml/min, A280",4.5 kDa
same,"fraction of the peptide oxidised (singly oxidised species, 4530 Da)",[7],around half
same,cell death after 72 h (green object count),[8],approximately halved
"[Na+].[O-]Cl [hypochlorite, sodium hypochlorite]",hypochlorite concentration at which neurons are resistant to cell death,cortical neurons,up to 200 μM
